Results published in US20230049152A1 (Genentech, published 2023).
Substitutions are numbered along the chain they refer to. Each block holds one binder with its values, some of them ahead of it.

How the values were obtained:
human CCR5 [1] = biological target: T1, human CCR5 (human, UniProt P51681 1-352); assay: flow cytometry, HEK293 with N-term FLAG-tagged human CCR5
T1 construct: whole, on cells; transiently expressed on HEK293 cells
From the text: (§1) FIGS. 4A-4F depicts the binding data of hu.Ab3.H1L1 (FIG. 4A), hu.Ab4.H1L1 (FIG. 4B), and hu.Ab5.H1L1 (FIG. 4C), as well as the commercial anti-CCR8 mAbs murine anti-human CCR8 mAb 433H (BD Biosciences) (FIG. 4D), and murine anti-human CCR8 mAb L263G8 (Biolegend) (FIG. 4E), and the humanized anti-human Yoshida anti-CCR8 mAb (FIG. 4F), to HEK293 cells that were transiently transfected with N-term FLAG-tagged plasmids encoding for human GPCRs (CCR2, CCR3, CCR4, CCR5, CCR8, CXCR4, ACKR2, and ACKR4), hCCR8 constructs, or with a mock construct using transIT X2 (reagent:DNA=3:1).
(§2) To confirm the selectivity to CCR8, the binding of hu.Ab3.H1L1, hu.Ab4.H1L1, and hu.Ab5.H1L1, as well as the Yoshida humanized anti-human CCR8, murine anti-human CCR8 mAb L263G8 (Biolegend, Commercial Ab) and murine anti-human CCR8 mAb 433H (BD Biosciences, Commercial Ab), were characterized by flow cytometry on HEK293 cells that were transiently transfected with plasmids encoding for FLAG-tagged other related human GPCRs (CCR2-5, CXCR4, ACKR2, and ACKR4). Cell surface expression of each GPCR was confirmed by staining with an anti-FLAG antibody control. […]

human CCR2 [2] = biological target: T2, human CCR2 (human, UniProt P41597 1-374); assay: flow cytometry, HEK293 with N-term FLAG-tagged human CCR2
T2 construct: whole, on cells; transiently expressed on HEK293 cells
T2 sequence (P41597 whole entry): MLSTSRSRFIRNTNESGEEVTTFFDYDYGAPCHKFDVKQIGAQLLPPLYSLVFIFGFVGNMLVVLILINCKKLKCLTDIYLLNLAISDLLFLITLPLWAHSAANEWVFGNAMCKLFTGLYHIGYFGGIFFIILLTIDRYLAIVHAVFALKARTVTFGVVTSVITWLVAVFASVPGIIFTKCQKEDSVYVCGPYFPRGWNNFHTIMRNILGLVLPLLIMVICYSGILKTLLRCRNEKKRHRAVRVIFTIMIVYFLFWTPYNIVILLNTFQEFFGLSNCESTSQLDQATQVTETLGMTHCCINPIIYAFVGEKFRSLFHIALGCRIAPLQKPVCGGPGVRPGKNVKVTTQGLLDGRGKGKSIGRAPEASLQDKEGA
From the text: as §1
(§3) To confirm the selectivity to CCR8, the binding of hu.Ab3.H1L1, hu.Ab4.H1L1, and hu.Ab5.H1L1, as well as the Yoshida humanized anti-human CCR8, murine anti-human CCR8 mAb L263G8 (Biolegend, Commercial Ab) and murine anti-human CCR8 mAb 433H (BD Biosciences, Commercial Ab), were characterized by flow cytometry on HEK293 cells that were transiently transfected with plasmids encoding for FLAG-tagged other related human GPCRs (CCR2-5, CXCR4, ACKR2, and ACKR4). Cell surface expression of each GPCR was confirmed by staining with an anti-FLAG antibody control. In particular, HEK293 cells were transfected with N-term FLAG-tagged human CCR2, CCR3, CCR4, CCR5, CXCR4, ACKR2, ACKR4, hCCR8 constructs, or with a Mock construct using transIT X2 (reagent:DNA=3:1) for 24 hours, and surface stained with various anti-hCCR8 monoclonal antibodies at 5 ug/ml, or rabbit anti-Flag pAb (Sigma) followed by AF647-anti-hIgG or AF647-anti-RbIgG respectively. Antibodies hu.Ab4.H1L1, and hu.Ab5.H1L1, only stained the hCCR8-containing cells, confirming their specificity to hCCR8. […] Thus, the CCR8 selective hu.Ab4.H1L1 and hu.Ab5.H1L1 antibodies with the best ADCC activities were carried forward.

human CXCR4 [3] = biological target: T3, human CXCR4 (human, UniProt P61073 1-352); assay: flow cytometry, HEK293 with N-term FLAG-tagged human CXCR4
T3 construct: whole, on cells; transiently expressed on HEK293 cells
T3 sequence (P61073 whole entry): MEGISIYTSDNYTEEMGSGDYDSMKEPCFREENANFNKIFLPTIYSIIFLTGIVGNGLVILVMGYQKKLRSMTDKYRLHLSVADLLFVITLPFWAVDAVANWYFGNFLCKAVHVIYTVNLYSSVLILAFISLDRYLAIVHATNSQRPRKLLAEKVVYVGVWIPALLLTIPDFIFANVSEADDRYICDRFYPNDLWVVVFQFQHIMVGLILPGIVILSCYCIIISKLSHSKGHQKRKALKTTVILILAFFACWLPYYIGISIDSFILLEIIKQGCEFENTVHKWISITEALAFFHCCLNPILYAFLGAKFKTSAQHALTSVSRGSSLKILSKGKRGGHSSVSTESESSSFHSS
From the text: as §1, §2

cyno CCR8 [4] = biological target: T4, cyno CCR8 (cynomolgus monkey, UniProt O97665 1-356 (rhesus entry)); assay: flow cytometry on human and cyno CCR8 CHO cells
T4 construct: also called cynomolgus monkey CCR8
T4 sequence (O97665 other isoform, or with tags, fused parts or gaps): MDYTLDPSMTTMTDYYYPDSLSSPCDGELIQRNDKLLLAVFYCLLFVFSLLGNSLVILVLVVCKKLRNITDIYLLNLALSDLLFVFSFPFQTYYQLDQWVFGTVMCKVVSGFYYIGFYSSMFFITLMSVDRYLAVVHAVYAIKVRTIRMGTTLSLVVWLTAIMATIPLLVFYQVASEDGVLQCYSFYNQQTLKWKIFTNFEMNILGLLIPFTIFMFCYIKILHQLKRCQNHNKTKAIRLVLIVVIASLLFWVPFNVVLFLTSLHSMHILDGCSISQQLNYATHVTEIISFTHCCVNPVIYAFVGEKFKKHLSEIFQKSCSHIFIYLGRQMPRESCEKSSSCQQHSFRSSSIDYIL

human CCR8 [5] = biological target: T5, human CCR8 (human, UniProt P51685 1-355); assay: cell-based or functional assay
human CCR5 [6] = biological target: T1, human CCR5; assay: flow cytometry, HEK293 with N-term FLAG-tagged human CCR5, procedure of FIG. 4
From the text: as §3
(§4) To reconfirm that the Ab4 and Ab5 variants remained selective to CCR8 compared to the corresponding HIL1 variants, binding was analyzed by flow cytometry following the procedure as described for FIG. 4A and FIG. 4B. […]

human CCR2 [7] = biological target: T2, human CCR2; assay: flow cytometry, HEK293 with N-term FLAG-tagged human CCR2, procedure of FIG. 4
From the text: as §3, §4

cyno CCR8 [8] = biological target: T4, cyno CCR8; assay: radioligand competition on CHO cells stably expressing cyno CCR8: fixed 125I-anti-CCR8 against serially diluted unlabelled antibody
Description: (§5) Cell-based affinity measurements were performed using radiolabeled IgGs and CHO cell lines stably expressing human or cyno CCR8 for hu.Ab5.H13L1 and hu.Ab4.H12L3.
(§6) Briefly, stable CHO cells expressing human or cyno CCR8 were seeded in cold binding buffer (Opti-MEM+2% FBS+50 mM HEPES, pH 7.2+0.1% Sodium Azide) at 50,000 cells per well. A fixed concentration of ¹²⁵I-anti-CCR8 radiolabeled using the NEX244 Iodogen method (Perkin Elmer) was mixed with serially diluted anti-CCR8 antibodies starting at 20 nM or 50 nM. The antibody mixture was added to the cells and incubated at room temperature for 12 hours under gentle agitation. The cells and antibodies were then transferred to Millipore multiscreen filter plates. The filter plates were washed 4 times with 250 μL of cold binding buffer and dried for at least 30 minutes and the filters were punched into 5 mL polystyrene tubes. The radioactivity was measured using a Perkin Elmer Wallac Wizard 2470 Gamma Counter set at 1 count per minute with 0.8 counting efficiency. The data were fitted using the heterologous one site-fit Ki competitive binding model in GraphPad Prism.

human CXCR4 [9] = biological target: T3, human CXCR4; assay: flow cytometry, HEK293 with N-term FLAG-tagged human CXCR4, procedure of FIG. 4
From the text: as §3, §4

human CCR4 = biological target: T6, human CCR4 (human, UniProt P51679 1-360); assay: flow cytometry, HEK293 with N-term FLAG-tagged human CCR4, procedure of FIG. 4
T6 construct: whole, on cells; transiently expressed on HEK293 cells
T6 sequence (looked up): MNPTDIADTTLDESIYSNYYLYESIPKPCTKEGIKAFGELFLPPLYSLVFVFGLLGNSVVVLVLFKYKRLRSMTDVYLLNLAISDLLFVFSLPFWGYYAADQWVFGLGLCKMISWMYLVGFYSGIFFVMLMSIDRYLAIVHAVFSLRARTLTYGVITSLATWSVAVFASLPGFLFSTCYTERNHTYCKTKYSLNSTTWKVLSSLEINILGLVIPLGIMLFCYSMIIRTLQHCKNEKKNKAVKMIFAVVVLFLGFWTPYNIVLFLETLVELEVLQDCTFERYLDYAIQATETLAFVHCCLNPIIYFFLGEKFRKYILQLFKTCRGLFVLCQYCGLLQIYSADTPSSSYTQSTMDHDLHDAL
From the text: as §3, §4

cyno CCR8 [10] = biological target: T4, cyno CCR8; assay: radioligand competition, 125I-labelled IgG versus unlabelled IgG on CHO cells stably expressing cyno CCR8
Description: as §5, §6

human CCR8 [11] = biological target: T5, human CCR8; assay: radioligand competition on CHO cells stably expressing human CCR8: fixed 125I-anti-CCR8 against serially diluted unlabelled antibody
Description: as §5, §6

T1 sequence (P51681 whole entry): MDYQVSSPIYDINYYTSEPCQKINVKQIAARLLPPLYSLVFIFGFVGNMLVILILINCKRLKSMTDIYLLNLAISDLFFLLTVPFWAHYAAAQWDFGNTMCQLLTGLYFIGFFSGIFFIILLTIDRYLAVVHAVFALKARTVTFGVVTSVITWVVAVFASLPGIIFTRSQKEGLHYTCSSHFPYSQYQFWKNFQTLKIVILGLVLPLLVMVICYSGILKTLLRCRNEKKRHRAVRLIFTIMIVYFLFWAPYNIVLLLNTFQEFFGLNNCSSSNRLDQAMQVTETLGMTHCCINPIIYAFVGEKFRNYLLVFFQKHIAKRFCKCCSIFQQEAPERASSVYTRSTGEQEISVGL

binding result (human CCR5 [6]): no binding (tested: 5 ug/ml)
binding result (human CCR2 [7]): no binding (tested: 5 ug/ml)
IC50 (read off the curve) (cyno CCR8 [8]): ~50 pM
binding result (human CXCR4 [9]): no binding (tested: 5 ug/ml)
binding result (human CCR4): no binding (tested: 5 ug/ml)
Kd (cyno CCR8 [10]): 0.0034 nM
IC50 (read off the curve) (human CCR8 [11]): ~50 pM
B2: hu.Ab5.H13L1 (antibody, human IgG1, kappa)
heavy: not shown
light: DIQVTQSPSSLSASVGDRVTITCQASENIANALAWYQQKPGKPPKFLIYGASNLASGVPSRFSGSGSGTDFTFTISSLQPEDIATYYCQQAYYGNSFVEGTFGGGTKVEIKRTVAAPSVFIFPPSDEQLKSGTASVVCLLNNFYPREAKVQWKVDNALQSGNSQESVTEQDSKDSTYSLSSTLTLSKADYEKHKVYACEVTHQGLSSPVTKSFNRGEC
notes: fucosylated human IgG1; also called Ab5 variant

binding result (human CCR5 [6]): no binding (tested: 5 ug/ml)
binding result (human CCR2 [7]): no binding (tested: 5 ug/ml)
IC50 (read off the curve) (cyno CCR8 [8]): ~100 pM
binding result (human CXCR4 [9]): no binding (tested: 5 ug/ml)
binding result (human CCR4): no binding (tested: 5 ug/ml)
Kd (cyno CCR8 [10]): 0.0243 nM
IC50 (read off the curve) (human CCR8 [11]): ~100 pM
B4: hu.Ab4.H12L3 (antibody, human IgG1, kappa)
heavy: not shown
light: DYQMTQSPSSLSASVGDRVTITCQASQSISSYLSWYQQKPGKAPKLLIYKASTLASGVPSRFSGSGSGTDFTLTISSLQPEDFATYYCQQGYTSSNIDNIFGGGTKVEIKRTVAAPSVFIFPPSDEQLKSGTASVVCLLNNFYPREAKVQWKVDNALQSGNSQESVTEQDSKDSTYSLSSTLTLSKADYEKHKVYACEVTHQGLSSPVTKSFNRGEC
notes: fucosylated human IgG1; also called huCCR8-Ab4.H12L3.hIgG1; Ab4 variant

The remaining lines, values behind:

B1: hu.Ab5.H1L1 (antibody, human IgG1, kappa)
heavy: not shown
light: B2 light
binding result (human CCR5 [1]): no binding (tested: 5 ug/ml)
binding result (human CCR2 [2]): no binding (tested: 5 ug/ml)
binding result (human CXCR4 [3]): no binding (tested: 5 ug/ml)
binding result (cyno CCR8 [4]): binds
ADCC EC50, NK-92_F158 effector cells, calcein release (human CCR8 [5]): 0.02 nM

B3: hu.Ab4.H1L1 (antibody, human IgG1, kappa)
heavy: not shown
light: B4 light with A43R
notes: also called hu.Ab4.H1Ll
binding result (human CCR5 [1]): no binding (tested: 5 ug/ml)
binding result (human CCR2 [2]): no binding (tested: 5 ug/ml)
binding result (human CXCR4 [3]): no binding (tested: 5 ug/ml)
binding result (cyno CCR8 [4]): binds
ADCC EC50, NK-92_F158 effector cells, calcein release (human CCR8 [5]): 0.08 nM
